B1: TMEM192 (parent)
chain: ILGKVILWILHLLLECYIQYHHSK
B2: C9orf9 (parent)
chain: TKHKCRQLTKASLKPRGCSKPPWR

Variants of: B1
Assay: protein stability index of a GFP-peptide fusion (GPS, HEK-293T) (PSI 1-6); higher = more stable
Conditions: c terminus: a fixed tail appended
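Note: lentivirally expressed fusions sorted by FACS into six bins by GFP to DsRed ratio, PSI derived from sequencing read proportions per bin multiplied by bin number.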

In order of falling protein stability index:
1. ILGKVLLWILHLLLECYIQYHHSK  3.74
2. ILGKVILNILHLLLECYIQYHHSK  3.71
3. VLGKVILWILHLLLECYIQYHHSK  3.68
4. ILGKVQLWILHLLLECYIQYHHSK  3.64
5. TLGKVILWILHLLLECYIQYHHSK  3.49
6. NLGKVILWILHLLLECYIQYHHSK  3.45
7. GLGKVILWILHLLLECYIQYHHSK  3.43
8. ELGKVILWILHLLLECYIQYHHSK  3.42
9. ILGKVVLWILHLLLECYIQYHHSK  3.41
10. SLGKVILWILHLLLECYIQYHHSK  3.41
11. LLGKVILWILHLLLECYIQYHHSK  3.4
12. MLGKVILWILHLLLECYIQYHHSK  3.36
13. ILGKVILHILHLLLECYIQYHHSK  3.31
14. ILGKVILFILHLLLECYIQYHHSK  3.29
15. ILGKVILMILHLLLECYIQYHHSK  3.22
16. ILGKVTLWILHLLLECYIQYHHSK  3.07
17. ILGKVHLWILHLLLECYIQYHHSK  3.07
18. ILGKVCLWILHLLLECYIQYHHSK  2.94
19. DLGKVILWILHLLLECYIQYHHSK  2.93
20. RLGKVILWILHLLLECYIQYHHSK  2.92
21. ILGKVILAILHLLLECYIQYHHSK  2.92
22. ILGKVILKILHLLLECYIQYHHSK  2.89
23. HLGKVILWILHLLLECYIQYHHSK  2.88
24. ILGKVNLWILHLLLECYIQYHHSK  2.86
25. CLGKVILWILHLLLECYIQYHHSK  2.82
26. FLGKVILWILHLLLECYIQYHHSK  2.81
27. ILGKVRLWILHLLLECYIQYHHSK  2.74
28. ILGKVPLWILHLLLECYIQYHHSK  2.73
29. ILGKVILPILHLLLECYIQYHHSK  2.6
30. PLGKVILWILHLLLECYIQYHHSK  2.56
31. QLGKVILWILHLLLECYIQYHHSK  2.5
32. ILGKVILEILHLLLECYIQYHHSK  2.47
33. ILGKVILDILHLLLECYIQYHHSK  2.44
34. ILGKVILLILHLLLECYIQYHHSK  2.26
35. ILGKVMLWILHLLLECYIQYHHSK  2.24
36. WLGKVILWILHLLLECYIQYHHSK  2.22
37. ILGKVILIILHLLLECYIQYHHSK  2.08
38. ILGKVILGILHLLLECYIQYHHSK  2.02
39. KLGKVILWILHLLLECYIQYHHSK  1.79

Variants of: B2
Assay: as above
Conditions: c terminus: a fixed tail appended

In order of rising protein stability index:
1. TKHKCRQLTKFSLKPRGCSKPPWR  1.67
2. TKHKCRQLTKASLKYRGCSKPPWR  1.68
3. TKHKCRQLTKASLMPRGCSKPPWR  1.73
4. WKHKCRQLTKASLKPRGCSKPPWR  1.77
5. TKHKCRQLTKASLKPRGCSDPPWR  1.92
6. TKHKCRQLTKMSLKPRGCSKPPWR  1.94
7. TKHICRQLTKASLKPRGCSKPPWR  1.99
8. TKHKCRQLTKASLKPRGCIKPPWR  2.08
9. TKHMCRQLTKASLKPRGCSKPPWR  2.15
10. TKHKWRQLTKASLKPRGCSKPPWR  2.17
11. TKHKCRQLTKASLKPRGCSVPPWR  2.2
12. TKHKCRQLTKASLKPRFCSKPPWR  2.23
13. TTHKCRQLTKASLKPRGCSKPPWR  2.27
14. TKHKCRQLTKASLKPRGCSLPPWR  2.3
15. TKHKCRQLTKASLKPRGCSFPPWR  2.32
16. TKHKCRQLTKASLKPRGCSIPPWR  2.37
17. TKWKCRQLTKASLKPRGCSKPPWR  2.42
18. TKHKCRQLTKASYKPRGCSKPPWR  2.43
19. TKHKCRHLTKASLKPRGCSKPPWR  2.5
20. TKHKCRQLTKASLKPRGCSKPPWW  2.51
21. TKHKCLQLTKASLKPRGCSKPPWR  2.56
22. TKHKCSQLTKASLKPRGCSKPPWR  2.59
23. TCHKCRQLTKASLKPRGCSKPPWR  2.68
24. TKHKCRQLTPASLKPRGCSKPPWR  2.71
25. TKHKCRQLTKASLKPRGCSKPPWT  2.73
26. TKHKCRQLTKASLKPCGCSKPPWR  2.75
27. TKHKCRQLTKASLKPRGCSHPPWR  2.76
28. TKHKCKQLTKASLKPRGCSKPPWR  2.76
29. TKHKCRQLTKASLKFRGCSKPPWR  2.77
30. TKHKCNQLTKASLKPRGCSKPPWR  2.78
31. TKHKCRQLTKASLKPRDCSKPPWR  2.79
32. TKHKCRQLTKAILKPRGCSKPPWR  2.87
33. TKHKCRQLTKASLKPRGCSSPPWR  2.9
34. TKHKCRALTKASLKPRGCSKPPWR  2.96
35. TKHKCRQLTKASLKPRGCSKPHWR  2.98
36. TKHKCRQLTKASLKPRGCTKPPWR  3.02
37. TKHKCRQLTKASLKPRGCSKPGWR  3.09
38. TKHKCQQLTKASLKPRGCSKPPWR  3.1
39. TKHKCRQLTKASLKPRGNSKPPWR  3.22
40. TKHKARQLTKASLKPRGCSKPPWR  3.24
41. TKHKCHQLTKASLKPRGCSKPPWR  3.25
42. TKHKCRQLTKASLKPDGCSKPPWR  3.28
43. TKHKCRQLTKASTKPRGCSKPPWR  3.32
44. TKHKCRQLTKASLKPRGCVKPPWR  3.35
45. TKHKCRQLTKASLKPRGCSKPPQR  3.46
46. TKHKCRQLTKGSLKPRGCSKPPWR  3.46
47. TKHKCRQLTKASLKPRECSKPPWR  3.49
48. TKHKDRQLTKASLKPRGCSKPPWR  3.56
49. TKHKCRQLTRASLKPRGCSKPPWR  3.59
50. TKHKCRQLTKASLKPVGCSKPPWR  3.76
51. TKHKCRQLTKAGLKPRGCSKPPWR  3.76
52. TKHKCRQLTKASLKPRGCSKPPYR  3.86
53. TKHKCRQLTKASLKRRGCSKPPWR  3.93
54. TKHKCRQLTKASLKPRGCSKPPNR  4.32
55. TKHKCRQLFKASLKPRGCSKPPWR  4.48

— the supplement of paper PMC10567573
